For the assay, the target named is NF-κB activator 1 (Act1) (UniProt Q8N7N6). Kind of assay: co-immunoprecipitation (anti-Myc IP, Western blot, ImageJ densitometry). Conditions: IL-17RA-deficient MEFs reconstituted by retroviral infection; treated with IL-17 for 10 min; parent: 100. On the technique in general: In western blotting, separated proteins are transferred to a membrane and probed.

For 1 substance, percent of parent results are on record in article PMC4014126 (2014).

Sequence of Myc-tagged mouse IL-17RA (Q60943 32-864, stated change not applied): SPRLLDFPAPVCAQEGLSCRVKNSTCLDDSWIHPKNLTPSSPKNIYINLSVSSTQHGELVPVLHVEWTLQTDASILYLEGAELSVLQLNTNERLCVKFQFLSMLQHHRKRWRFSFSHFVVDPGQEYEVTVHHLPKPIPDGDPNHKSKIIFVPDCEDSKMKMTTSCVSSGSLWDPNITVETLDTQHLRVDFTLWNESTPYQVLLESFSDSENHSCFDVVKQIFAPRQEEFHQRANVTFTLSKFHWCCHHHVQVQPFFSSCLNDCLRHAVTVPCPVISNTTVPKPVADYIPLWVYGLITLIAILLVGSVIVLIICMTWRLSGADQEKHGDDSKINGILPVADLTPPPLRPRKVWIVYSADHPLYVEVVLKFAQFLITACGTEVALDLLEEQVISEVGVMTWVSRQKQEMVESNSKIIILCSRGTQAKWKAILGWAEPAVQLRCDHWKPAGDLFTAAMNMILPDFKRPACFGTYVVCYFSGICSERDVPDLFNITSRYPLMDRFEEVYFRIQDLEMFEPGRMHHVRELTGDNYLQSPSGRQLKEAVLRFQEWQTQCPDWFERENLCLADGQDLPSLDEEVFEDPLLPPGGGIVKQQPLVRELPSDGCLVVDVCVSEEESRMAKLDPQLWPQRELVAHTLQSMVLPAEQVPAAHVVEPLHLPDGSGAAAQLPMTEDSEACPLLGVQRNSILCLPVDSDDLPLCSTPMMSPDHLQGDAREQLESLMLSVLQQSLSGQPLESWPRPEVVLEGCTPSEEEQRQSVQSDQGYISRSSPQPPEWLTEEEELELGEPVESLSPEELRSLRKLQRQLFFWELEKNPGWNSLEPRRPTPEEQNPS
Sequence of NF-κB activator 1 (Act1) (Q8N7N6 whole entry): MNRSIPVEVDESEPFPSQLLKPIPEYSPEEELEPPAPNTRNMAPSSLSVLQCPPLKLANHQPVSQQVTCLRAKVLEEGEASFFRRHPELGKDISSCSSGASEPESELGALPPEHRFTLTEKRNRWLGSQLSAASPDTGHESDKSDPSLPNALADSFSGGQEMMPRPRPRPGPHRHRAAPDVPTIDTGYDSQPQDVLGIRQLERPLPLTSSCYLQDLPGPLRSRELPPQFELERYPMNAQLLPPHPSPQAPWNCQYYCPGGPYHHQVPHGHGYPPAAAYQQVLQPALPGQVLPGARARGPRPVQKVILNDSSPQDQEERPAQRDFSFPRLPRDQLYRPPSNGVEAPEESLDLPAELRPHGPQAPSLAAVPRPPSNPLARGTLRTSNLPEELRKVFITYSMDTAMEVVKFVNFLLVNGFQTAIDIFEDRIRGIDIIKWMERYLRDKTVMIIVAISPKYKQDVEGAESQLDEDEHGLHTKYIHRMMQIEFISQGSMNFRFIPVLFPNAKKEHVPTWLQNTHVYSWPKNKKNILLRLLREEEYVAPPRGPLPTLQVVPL

In the case of “Myc-tagged mouse IL-17RA (from UniProt Q60943) T483A; N488A; M489A”, the percent of parent was determined as 31.
